Measured values from patent US20110183922A1 (UNIVERSITY OF MIAMI, published 2011).

Experiments:
[1] = biological target: AChE expressed in COS cells (human and/or mouse AChE) (human and/or mouse); test: cell-based or functional assay
[2] = biological target: AChE of primary quail muscle cells (quail); test: cell-based or functional assay

Binder | G4 AChE level [1] | tetrameric G4 AChE activity in the medium (velocity sedimentation, 10 uM peptide overnight) [2] [fold]
KRSVNKCCLLTPPPPPLFPPPFFTETNILKDEL [SEQ ID NO: 11] | 2.14 | –
KRSVNKCCLLTPPPPPLFPPPFFKDEL [SEQ ID NO: 9] | 2.37 | –
VNKCCLLTPPPPPLFPPPFFKDEL [SEQ ID NO: 6] | 2.26 | –
CCLLTPPPPPLFPPPFF [ColQ PRAD peptide (17 amino acid ColQ PRAD polypeptide)] | – | > 2
CCLLTPPPPPLFPPPFFKDEL [ColQ PRAD-KDEL peptide] | 2.37 | –
VNKCCLLTPPPPPLFPPPFFTETLDEL [SEQ ID NO: 8] | 2.17 | –
